The values that follow come from patent publication US20240383984A1 (Genentech, published 2024).

Assay [1] addresses T1, human E11 protein (amino acids 745-850 of SEQ ID NO: 114, N-terminal His tag) (human, UniProt Q96RD9 745-850).
T1 construct: Membrane-proximal Ig domain of FcRH5, produced in CHO cells; also called human E11 domain; recombinant human E11
T1 sequence: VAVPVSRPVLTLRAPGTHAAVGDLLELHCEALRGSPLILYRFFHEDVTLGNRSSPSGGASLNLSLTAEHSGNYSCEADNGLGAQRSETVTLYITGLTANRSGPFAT
Briefly: SPR, IgG captured on protein A, monovalent. On the procedure: (§1) *E11 domain, transmembrane domain, and cytoplasmic domains of human FcRHS. §Surface plasmon resonance BIACORE * KD, monovalent affinity. Human E11 domain experiments were performed 1 to 3 times and averaged.
(§2) Briefly, test antibodies were captured on flow cells 2, 3 or 4 with flow cell 1 as a reference on a protein A Series S CM5 chip (GE Life Sciences, Piscataway, NJ). An FcRH5 protein fragment was used as analyte, with a flow rate of 30 μl/minute. Between injections the capture surface was regenerated by a 30 second injection of 10 mM glycine, pH 1.5 at a flow rate of 10 μl/minute. Interactions were assessed at 25° C. in 10 mM HEPES pH 7.4, 150 mM NaCl, 0.05% Tween 20 (HBSP). Reference data from the reference flow cell and from injection of buffer alone was subtracted prior to kinetic analysis. Kinetic information was calculated by fitting data to a 1:1 binding model. Reference subtraction and data fitting were performed using BIAevaluation software (GE Life Sciences, Piscataway, NJ).

The target in assay [2] is T2, cynomolgus E11 domain protein (cynomolgus monkey).
T2 construct: whole entry named; also called cyno E11
T2 chain: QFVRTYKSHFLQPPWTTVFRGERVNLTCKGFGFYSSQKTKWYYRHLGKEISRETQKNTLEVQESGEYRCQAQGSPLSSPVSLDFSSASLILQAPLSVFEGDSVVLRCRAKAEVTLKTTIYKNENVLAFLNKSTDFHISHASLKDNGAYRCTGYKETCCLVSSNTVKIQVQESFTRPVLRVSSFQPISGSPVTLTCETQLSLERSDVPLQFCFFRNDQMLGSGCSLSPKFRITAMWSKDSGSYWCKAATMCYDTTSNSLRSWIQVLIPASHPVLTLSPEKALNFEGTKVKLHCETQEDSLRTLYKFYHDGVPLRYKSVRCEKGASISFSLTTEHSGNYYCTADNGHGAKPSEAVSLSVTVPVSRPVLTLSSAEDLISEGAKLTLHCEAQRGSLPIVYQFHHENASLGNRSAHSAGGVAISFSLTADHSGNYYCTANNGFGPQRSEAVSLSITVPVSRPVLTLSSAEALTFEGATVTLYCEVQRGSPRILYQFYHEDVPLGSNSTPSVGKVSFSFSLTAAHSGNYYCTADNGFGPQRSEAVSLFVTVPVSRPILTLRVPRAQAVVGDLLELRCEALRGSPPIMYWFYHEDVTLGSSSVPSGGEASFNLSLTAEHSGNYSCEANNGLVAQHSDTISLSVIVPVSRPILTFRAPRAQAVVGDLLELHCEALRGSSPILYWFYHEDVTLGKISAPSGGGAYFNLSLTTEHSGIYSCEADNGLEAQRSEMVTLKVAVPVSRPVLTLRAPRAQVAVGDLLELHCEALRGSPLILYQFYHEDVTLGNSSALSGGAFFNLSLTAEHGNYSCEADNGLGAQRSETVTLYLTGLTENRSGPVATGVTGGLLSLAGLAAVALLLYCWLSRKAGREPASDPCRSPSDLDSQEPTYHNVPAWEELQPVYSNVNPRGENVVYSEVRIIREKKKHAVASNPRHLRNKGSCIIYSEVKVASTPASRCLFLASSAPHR
The experiment in a line: SPR, IgG captured on protein A, monovalent. On the procedure: as §1, §2

Assay [3] concerns the target T3, human FcRH3 (BIACORE analyte) (human, UniProt Q96P31 18-573, limits assumed).
T3 construct: also called huFcRH3
T3 sequence (looked up): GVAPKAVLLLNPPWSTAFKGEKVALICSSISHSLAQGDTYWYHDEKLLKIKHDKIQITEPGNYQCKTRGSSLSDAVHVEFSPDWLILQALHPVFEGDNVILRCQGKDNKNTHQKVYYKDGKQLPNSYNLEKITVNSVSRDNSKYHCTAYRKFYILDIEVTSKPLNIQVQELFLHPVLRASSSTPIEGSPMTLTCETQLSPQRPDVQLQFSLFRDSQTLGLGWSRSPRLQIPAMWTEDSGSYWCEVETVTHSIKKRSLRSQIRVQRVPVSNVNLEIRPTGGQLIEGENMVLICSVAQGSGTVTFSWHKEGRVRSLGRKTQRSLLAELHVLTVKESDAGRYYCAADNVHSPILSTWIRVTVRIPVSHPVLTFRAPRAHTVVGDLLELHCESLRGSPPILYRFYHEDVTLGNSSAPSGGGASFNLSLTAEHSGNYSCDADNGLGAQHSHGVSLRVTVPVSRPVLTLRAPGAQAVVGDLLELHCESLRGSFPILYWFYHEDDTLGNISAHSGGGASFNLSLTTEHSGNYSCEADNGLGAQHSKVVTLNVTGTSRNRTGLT
Briefly: BIACORE. In general terms: Surface plasmon resonance follows binding to a sensor surface in real time, without labels.

B1: 17B1 (antibody, mouse IgG2a, V domains shown)
VH: QVQLQQSGPELVRPGVSVKISCKGSGYTFTHYAMHWVKQSHTKSLEWIGMISSSSGNTNFNQKFMDKATMTVDKSSTTAYLELARLTFGDSAIYYCARWSYYALFDYWGQGTTVTVSS
VL: ENVLTQSPAIMSASPGEKVTMTCSADSSVDYIHWYQQKSNTSPKLWIYDTSKLASGVPGRFSGSGSGNSYSLTISSMEAEDFATYYCFQGSGYPLTFGSGTKLELK
notes: mouse mAb, Campaign C; recombinant murine IgG2a for SPR
On to B1, for which the Kd in assay [1] is 68 nM; in assay [2], 27 nM.

B2: 15G8 (antibody, mouse IgG2a, V domains shown)
VH: EVQLQQSGPELVKPGASVKMSCKASGYTFTNYVIHWMKQKPGQGLEWIGYISPYNDYTKYNEKFEGKATLTSDKSSNTAYMELSSLTSEDSAVYYCARRDYYGSSDYWGQGTTLTVSS
VL: QIVLTQSPAIMSASPGEKVTMTCSASSSVDYMHWYQQKSGTSPKKWIYDTSKLASGVPARFSGSGSGTSYSLTIGSMEAEDAATYYCQQWSSNPPTFGGGTKLEIK
notes: mouse mAb, Campaign C; recombinant murine IgG2a for SPR; also called mAb 15G8
In the case of B2, the values for the Kd in assay [1] and in assay [2] were 0.5 nM and 9.1 nM, respectively.

B3: hu1G7.v1.4/38E4.v1 TDB (bispecific antibody, V domains shown)
VH 1: EVQLVESGPGLVKPSETLSLTCTVSGFSLTRFGVHWVRQPPGKGLEWLGVIWRGGSTDYNAAFMSRLTISKDNSKNQVSLKLSSVTAADTAVYYCSNHYYGSSDYALDNWGQGTLVTVSS
VL 1: DIQMTQSPSSLSASVGDRVTITCKASQDVRNLVVWFQQKPGKAPKLLIYSGSYRYSGVPSRFSGSGSGTDFTLTISSLQPEDFATYYCQQHYSPPYTFGQGTKVEIK
VH 2: EVQLVQSGAEVKKPGASVKVSCKASGFTFTSYYIHWVRQAPGQGLEWIGWIYPENDNTKYNEKFKDRVTITADTSTSTAYLELSSLRSEDTAVYYCARDGYSRYYFDYWGQGTLVTVSS
VL 2: DIVMTQSPDSLAVSLGERATINCKSSQSLLNSRTRKNYLAWYQQKPGQSPKLLIYWTSTRKSGVPDRFSGSGSGTDFTLTISSLQAEDVAVYYCKQSFILRTFGQGTKVEIK
notes: knob-into-hole TDB; also called 1G7.v1.4 TDB; 1G7.v1.4 (TDB format)
For the molecule B3, the Kd in assay [3] is ~80 nM.

B4: 1G7.v85/38E4.v1 TDB (bispecific antibody, V domains shown)
VH 1: EVQLVESGPGLVKPSETLSLTCTVSGFSLTRFGVHWVRQPPGKGLEWLGVIWRGGSTDYNAAFVSRLTISKDNSKNQVSLKLSSVTAADTAVYYCSNHYYGSSDYALDNWGQGTLVTVSS
VL 1: DIQMTQSPSSLSASVGDRVTITCKASQDVRNLVVWFQQKPGKAPKLLIYSGSYRYSGVPSRFSGSGSGTDFTLTISSLQPEDFATYYCQQHYSPPYTFGQGTKVEIK
VH 2: EVQLVQSGAEVKKPGASVKVSCKASGFTFTSYYIHWVRQAPGQGLEWIGWIYPENDNTKYNEKFKDRVTITADTSTSTAYLELSSLRSEDTAVYYCARDGYSRYYFDYWGQGTLVTVSS
VL 2: DIVMTQSPDSLAVSLGERATINCKSSQSLLNSRTRKNYLAWYQQKPGQSPKLLIYWTSTRKSGVPDRFSGSGSGTDFTLTISSLQAEDVAVYYCKQSFILRTFGQGTKVEIK
notes: knob-into-hole TDB; also called 1G7.v85 TDB; 1G7.v85 (TDB format)
For the molecule B4, in assay [3], the Kd was ~90 nM.

A word on the Kd: it is the concentration at which binding is half-saturated.
